Experimental data: US20040241164A1

Experiments:
Soluble Aβ 1-40 = Soluble Aβ 1-40 (UniProt P05067); experiment: BIAcore 2000 SPR, antibody captured by anti-Ig, soluble Aβ in flow
Soluble Aβ 1-42 = Soluble Aβ 1-42 (UniProt P05067); experiment: as above

Substance: Murine anti-Aβ antibody 266
- Kd (Soluble Aβ 1-40): 0.004 nM
- Kd (Soluble Aβ 1-42): 0.004 nM

Substance: anti-Aβ murine antibody 4G8
- Kd (Soluble Aβ 1-40): 23 nM
- Kd (Soluble Aβ 1-42): 24 nM

Substance: anti-Aβ murine antibody 21F12
- Kd (Soluble Aβ 1-42): 4.4 nM
